Measured values taken from article PMC5662623.

Assays:
adaptor protein AP-3 = assay: GST pull-down from rat brain lysate, immunoblot band intensity quantification (anti-β-NAP); conditions: at least three independent experiments; parent: est. 1.0; read off a plot
adaptor protein AP-1 = assay: GST pull-down from rat brain lysate, immunoblot band intensity quantification (anti-adaptin γ); conditions: at least three independent experiments; parent: est. 1.0; read off a plot

ratio to parent (adaptor protein AP-3): 0.33
ratio to parent (adaptor protein AP-1): 0.59
Substance: GST fusion of the WT VGLUT2 C-terminus F518G; I519G
